Experimental data reported in US20110300138A1 (published 2011).
Read-outs that look alike come from different tables or passages of the source.

Legend:
[1] = target: TSHR260-alkaline phosphatase (TSHR260-AP) (human) (UniProt P05187); assay: TSHR260-AP bridge ELISA, full length TSHR on wells; 100 µg/mL, diluted in HBD
TSHR260-AP (human) [2] = assay: TSHR260-AP bridge ELISA (full length TSHR on wells, TSHR260-AP in solution); IgG 0.5 µg/mL diluted in HBD serum
[3] = target: human TSH receptor (full length, wild type) expressed in CHO cells (human) (UniProt P16473); assay: cell-based or functional assay
[4] = target: human TSHR (thyroid stimulating hormone receptor) expressed in transfected CHO cells (human) (UniProt P16473); assay: cell-based or functional assay
TSHR260-AP (human) [5] = assay: TSHR260-AP bridge ELISA (full length TSHR on wells, TSHR260-AP in solution); IgG 0.005 µg/mL diluted in assay buffer
TSHR260-AP (human) [6] = assay: TSHR260-AP bridge ELISA (full length TSHR on wells, TSHR260-AP in solution); IgG 0.005 µg/mL diluted in HBD serum
[7] = target: TSHR260-alkaline phosphatase (TSHR260-AP) (human) (UniProt P05187); assay: TSHR260-AP bridge ELISA, full length TSHR on wells; 0.01 µg/mL, diluted in assay buffer
TSHR260-AP (human) [8] = assay: TSHR260-AP bridge ELISA (full length TSHR on wells, TSHR260-AP in solution); IgG 1 µg/mL diluted in assay buffer
[9] = target: TSHR260-alkaline phosphatase (TSHR260-AP) (human) (UniProt P05187); assay: TSHR260-AP bridge ELISA, full length TSHR on wells; 1 µg/mL, diluted in HBD
TSHR260-AP (human) [10] = assay: TSHR260-AP bridge ELISA (full length TSHR on wells, TSHR260-AP in solution); IgG 0.01 µg/mL diluted in HBD serum
TSHR260-AP (human) [11] = assay: TSHR260-AP bridge ELISA (full length TSHR on wells, TSHR260-AP in solution); IgG 250 µg/mL diluted in HBD serum
TSHR260-AP (human) [12] = assay: TSHR260-AP bridge ELISA (full length TSHR on wells, TSHR260-AP in solution); IgG 100 µg/mL diluted in HBD serum
TSHR260-AP (human) [13] = assay: TSHR260-AP bridge ELISA (full length TSHR on wells, TSHR260-AP in solution); IgG 10 µg/mL diluted in assay buffer
[14] = target: TSHR260-alkaline phosphatase (TSHR260-AP) (human) (UniProt P05187); assay: TSHR260-AP bridge ELISA, full length TSHR on wells; 250 µg/mL, diluted in assay buffer
TSHR260-AP (human) [15] = assay: TSHR260-AP bridge ELISA (full length TSHR on wells, TSHR260-AP in solution); IgG 0.1 µg/mL diluted in assay buffer
TSHR260-AP (human) [16] = assay: TSHR260-AP bridge ELISA (full length TSHR on wells, TSHR260-AP in solution); IgG 1 µg/mL diluted in HBD serum
[17] = target: TSHR260-alkaline phosphatase (TSHR260-AP) (human) (UniProt P05187); assay: TSHR260-AP bridge ELISA, full length TSHR on wells; 0.5 µg/mL, diluted in HBD
[18] = target: TSHR260-alkaline phosphatase (TSHR260-AP) (human) (UniProt P05187); assay: TSHR260-AP bridge ELISA, full length TSHR on wells; 0.05 µg/mL, diluted in assay buffer
[19] = target: TSHR260-alkaline phosphatase (TSHR260-AP) (human) (UniProt P05187); assay: TSHR260-AP bridge ELISA, full length TSHR on wells; 10 µg/mL, diluted in HBD
[20] = target: TSHR260-alkaline phosphatase (TSHR260-AP) (human) (UniProt P05187); assay: TSHR260-AP bridge ELISA, full length TSHR on wells; 0.1 µg/mL, diluted in HBD
[21] = target: human TSHR (wild type, full length) expressed in CHO cells (human) (UniProt P16473); assay: cell-based or functional assay
TSHR260-AP (human) [22] = assay: TSHR260-AP bridge ELISA (full length TSHR on wells, TSHR260-AP in solution); IgG 0.1 µg/mL diluted in HBD serum
[23] = target: human TSH receptor (full length, wild type) expressed in CHO cells (human) (UniProt P16473); assay: cell-based or functional assay; remark: listed apart in the source
[24] = target: TSHR260-alkaline phosphatase (TSHR260-AP) (human) (UniProt P05187); assay: TSHR260-AP bridge ELISA, full length TSHR on wells; 0.5 µg/mL, diluted in assay buffer
[25] = target: TSHR260-alkaline phosphatase (TSHR260-AP) (human) (UniProt P05187); assay: TSHR260-AP bridge ELISA, full length TSHR on wells; 1 µg/mL, diluted in assay buffer

Mean absorbance at 405 nm (absorbance at 405 nm) [1]: 0.003
Mean absorbance at 405 nm (absorbance at 405 nm) (TSHR260-AP (human) [2]): -0.001
% Inhibition; T4 serum + 100 µg/mL 5B3 IgG [3]: 30.3%
% Inhibition; T5 serum + 100 µg/mL 5B3 IgG [3]: 0%
% Inhibition; T6 serum + 100 µg/mL 5B3 IgG [3]: 1.8%
Cyclic AMP concentration; 100 µg/mL 5B3 IgG alone [3]: 2.6 pmol/mL
Cyclic AMP concentration; HBD + 100 µg/mL 5B3 IgG [3]: 3 pmol/mL
Cyclic AMP concentration; T4 serum + 100 µg/mL 5B3 IgG [3]: 55 pmol/mL
Cyclic AMP concentration; T5 serum + 100 µg/mL 5B3 IgG [3]: 66.7 pmol/mL
Cyclic AMP concentration; T6 serum + 100 µg/mL 5B3 IgG [3]: 81.5 pmol/mL
Cyclic AMP concentration; 3 ng/mL M22 IgG + 10 µg/mL 5B3 IgG [4]: 21.6 pmol/mL
Cyclic AMP concentration; 3 ng/mL M22 IgG + 100 µg/mL 5B3 IgG [4]: 28.1 pmol/mL
Cyclic AMP concentration; 100 µg/mL 5B3 IgG [4]: 1.1 pmol/mL
Mean absorbance at 405 nm (absorbance at 405 nm) (TSHR260-AP (human) [5]): -0.012
Mean absorbance at 405 nm (absorbance at 405 nm) (TSHR260-AP (human) [6]): -0.002
Mean absorbance at 405 nm (absorbance at 405 nm) [7]: 0.012
Mean absorbance at 405 nm (absorbance at 405 nm) (TSHR260-AP (human) [8]): -0.004
Mean absorbance at 405 nm (absorbance at 405 nm) [9]: 0.049
Mean absorbance at 405 nm (absorbance at 405 nm) (TSHR260-AP (human) [10]): 0.027
Mean absorbance at 405 nm (absorbance at 405 nm) (TSHR260-AP (human) [11]): 0.012
Mean absorbance at 405 nm (absorbance at 405 nm) (TSHR260-AP (human) [12]): 0.003
Mean absorbance at 405 nm (absorbance at 405 nm) (TSHR260-AP (human) [13]): -0.014
Mean absorbance at 405 nm (absorbance at 405 nm) [14]: 0.018
Mean absorbance at 405 nm (absorbance at 405 nm) (TSHR260-AP (human) [15]): -0.013
Mean absorbance at 405 nm (absorbance at 405 nm) (TSHR260-AP (human) [16]): 0.049
Mean absorbance at 405 nm (absorbance at 405 nm) [17]: -0.001
Mean absorbance at 405 nm (absorbance at 405 nm) [18]: -0.009
Mean absorbance at 405 nm (absorbance at 405 nm) [19]: -0.006
Mean absorbance at 405 nm (absorbance at 405 nm) [20]: -0.002
% Inhibition of T8 serum stimulation; 0.1 µg/mL 5B3 IgG [21]: 3%
% Inhibition of T8 serum stimulation; 1 µg/mL 5B3 IgG [21]: 2%
% Inhibition of T8 serum stimulation; 10 µg/mL 5B3 IgG [21]: 0%
% Inhibition of T8 serum stimulation; 100 µg/mL 5B3 IgG [21]: 3%
Cyclic AMP concentration; 0.1 µg/mL 5B3 IgG + T8 [21]: 50.7 pmol/mL
Cyclic AMP concentration; 1 µg/mL 5B3 IgG + T8 [21]: 51.4 pmol/mL
Cyclic AMP concentration; 10 µg/mL 5B3 IgG + T8 [21]: 56 pmol/mL
Cyclic AMP concentration; 100 µg/mL 5B3 IgG + T8 [21]: 50.5 pmol/mL
Cyclic AMP concentration; 100 µg/mL 5B3 IgG alone [21]: 2.1 pmol/mL
Mean absorbance at 405 nm (absorbance at 405 nm) (TSHR260-AP (human) [22]): -0.002
% Inhibition; T7 serum + 100 µg/mL 5B3 IgG [23]: 0%
% Inhibition; T8 serum + 100 µg/mL 5B3 IgG [23]: 10.9%
% Inhibition; T9 serum + 100 µg/mL 5B3 IgG [23]: 0%
Cyclic AMP concentration; 100 µg/mL 5B3 IgG alone [23]: 2.7 pmol/mL
Cyclic AMP concentration; HBD + 100 µg/mL 5B3 IgG [23]: 4 pmol/mL
Cyclic AMP concentration; T7 serum + 100 µg/mL 5B3 IgG [23]: 91.9 pmol/mL
Cyclic AMP concentration; T8 serum + 100 µg/mL 5B3 IgG [23]: 76.3 pmol/mL
Cyclic AMP concentration; T9 serum + 100 µg/mL 5B3 IgG [23]: 53.2 pmol/mL
Mean absorbance at 405 nm (absorbance at 405 nm) [24]: -0.006
Mean absorbance at 405 nm (absorbance at 405 nm) [25]: -0.004
Substance: 5B3 IgG (antibody)
